Each block holds one molecule with its values, some of them ahead of it.
What was measured:
class I HLA molecules = target: T1, class I HLA molecules (Homo sapiens, UniProt P01889); assay: Targeted mass spectrometry MHC-peptide analysis (SureQuant, heavy isotope-labeled synthetic peptides); conditions: light endogenous vs heavy isotope-labeled synthetic peptide; human prostate specimen; HLA-B*07:02; Skyline software
T1 construct: Frozen cell pellets endogenously expressing MHC molecules (untagged) or biotin acceptor peptide (BAP)-tagged MHC molecules; biotin acceptor peptide (BAP), only in some samples; endogenous in cells; host or cells: Human cell lines (e.g. MDAPCa2b, CAMA1, HCC1500, A375, Expi293, B721) and human tissue (prostate, tumours); some cell samples express BAP-tagged HLA
Procedure: Tissue samples were homogenized in lysis buffer plus benzonase nuclease. All lysates were cleared by centrifugation. […] BAP-tagged samples were biotinylated with 0.56 μM biotin, 1 mM ATP, and 1 μM BirA biotin ligase for 10 minutes, and subsequently incubated with High-Capacity NeutrAvidin Agarose resin for 30 minutes at 4° C. with end-over-end rotation. […] MHC molecules were eluted using 10% acetic acid and peptides were isolated using 10K molecular weight cut-off filtration following filter passivation with 1% bovine serum albumin (BSA). If required, samples were next reduced and alkylated using 5 mM Bond-Breaker TCEP solution at 60° C. for 30 min followed by 15 mM 2-Iodoacetamide for 30 min, protected from light. […] The volume of eluted peptides was reduced using vacuum centrifugation. For targeted analyses, isolated MHC-I peptides were labeled using an isobaric labeling reagent from the tandem mass tag (TMT) 10-plex reagent set (Thermo Fisher). Dried peptides were resuspended in 50 mM HEPES buffer pH 8.5 and combined with 33.3 μg of TMT solubilized in 100% anhydrous acetonitrile. […] Peptides were analyzed using SureQuant targeted data acquisition strategy, where the heavy isotope labeled synthetic peptide serves as a trigger to guide the acquisition of spectrum corresponding to the light (unlabeled) endogenous MHC peptide using mass offset triggering and pseudo-spectral matching. […]

HLA-A*02:01 [1] = target: T2, HLA-A*02:01 (human); assay: MS validation of HLA class I-presented peptide; samples CAMA1, HCC1500
T2 construct: MHC class I molecule expressed by the cells or tissue sample (endogenous or BAP-tagged), immunopurified before peptide elution
Procedure: (§1) Frozen cell pellets endogenously expressing MHC molecules (untagged) or biotin acceptor peptide (BAP)-tagged MHC molecules were lysed by pipetting and end-over-end rotation for twenty minutes using lysis buffer [20 mM Tris-Cl pH 8, 100 mM NaCl, 6 mM MgCl2, 1.5% (v/v) Triton X-100, 60 mM octyl B-D-glucopyranoside, 0.2 mM of 2-Iodoacetamide, 1 mM EDTA pH 8, 1 mM PMSF, 1× complete EDTA-free protease inhibitor cocktail (Roche)] plus benzonase nuclease for twenty minutes. Tissue samples were homogenized in lysis buffer plus benzonase nuclease. All lysates were cleared by centrifugation. Samples with untagged MHC molecules were subsequently incubated with GammaBind Plus Sepharose Beads (GE Healthcare) pre-charged with a pan-HLA A/B/C antibody (clone W6/32) overnight at 4 C with end-over-end rotation. BAP-tagged samples were biotinylated with 0.56 μM biotin, 1 mM ATP, and 1 μM BirA biotin ligase for 10 minutes, and subsequently incubated with High-Capacity NeutrAvidin Agarose resin for 30 minutes at 4° C. with end-over-end rotation. Following enrichment, beads were washed 2× with wash buffer A [20 mM Tris-Cl pH 8, 100 mM, NaCl, 60 mM octyl B-D-glucopyranoside, 0.2 mM of 2-Iodoacetamide, 1 mM EDTA pH 8] and wash buffer B [10 mM Tris-Cl pH 8] using a positive pressure manifold. […]

HLA-A*01:01 [2] = target: T3, HLA-A*01:01 (human); assay: MS validation of HLA class I-presented peptide; samples GBM, A375
T3 construct: MHC class I molecule expressed by the cells or tissue sample (endogenous or BAP-tagged), immunopurified before peptide elution
Procedure: as §1

HLA-C*06:02 [3] = target: T4, HLA-C*06:02 (human); assay: MS validation of HLA class I-presented peptide; sample MDAPCa2b
T4 construct: MHC class I molecule expressed by the cells or tissue sample (endogenous or BAP-tagged), immunopurified before peptide elution
Procedure: as §1

HLA-C*04:01 [4] = target: T5, HLA-C*04:01 (human); assay: MS validation of HLA class I-presented peptide; samples B721, A375
T5 construct: MHC class I molecule expressed by the cells or tissue sample (endogenous or BAP-tagged), immunopurified before peptide elution
Procedure: as §1

HLA-A*02:01 [5] = target: T2, HLA-A*02:01; assay: MS validation of HLA class I-presented peptide; sample A375
Procedure: as §1

HLA-C*06:02 [6] = target: T4, HLA-C*06:02; assay: MS validation of HLA class I-presented peptide; sample human prostate
Procedure: (§2) Frozen cell pellets endogenously expressing MHC molecules (untagged) or biotin acceptor peptide (BAP)-tagged MHC molecules were lysed by pipetting and end-over-end rotation for twenty minutes using lysis buffer [20 mM Tris-Cl pH 8, 100 mM NaCl, 6 mM MgCl2, 1.5% (v/v) Triton X-100, 60 mM octyl B-D-glucopyranoside, 0.2 mM of 2-Iodoacetamide, 1 mM EDTA pH 8, 1 mM PMSF, 1× complete EDTA-free protease inhibitor cocktail (Roche)] plus benzonase nuclease for twenty minutes. Tissue samples were homogenized in lysis buffer plus benzonase nuclease. All lysates were cleared by centrifugation. Samples with untagged MHC molecules were subsequently incubated with GammaBind Plus Sepharose Beads (GE Healthcare) pre-charged with a pan-HLA A/B/C antibody (clone W6/32) overnight at 4 C with end-over-end rotation. BAP-tagged samples were biotinylated with 0.56 μM biotin, 1 mM ATP, and 1 μM BirA biotin ligase for 10 minutes, and subsequently incubated with High-Capacity NeutrAvidin Agarose resin for 30 minutes at 4° C. with end-over-end rotation. Following enrichment, beads were washed 2× with wash buffer A [20 mM Tris-Cl pH 8, 100 mM, NaCl, 60 mM octyl B-D-glucopyranoside, 0.2 mM of 2-Iodoacetamide, 1 mM EDTA pH 8] and wash buffer B [10 mM Tris-Cl pH 8] using a positive pressure manifold. MHC molecules were eluted using 10% acetic acid and peptides were isolated using 10K molecular weight cut-off filtration following filter passivation with 1% bovine serum albumin (BSA). If required, samples were next reduced and alkylated using 5 mM Bond-Breaker TCEP solution at 60° C. for 30 min followed by 15 mM 2-Iodoacetamide for 30 min, protected from light. Samples were next acidified using 100% formic acid and desalted using 10 mg Sep-Pak tC18 μElution plates with peptide elutions at 15% acetonitrile and 50% acetonitrile, which were subsequently pooled. The volume of eluted peptides was reduced using vacuum centrifugation.

HLA-C*07:02 [7] = target: T6, HLA-C*07:02 (human); assay: MS validation of HLA class I-presented peptide (second allele under Allele (MS)); sample human prostate
T6 construct: MHC class I molecule expressed by the cells or tissue sample (endogenous or BAP-tagged), immunopurified before peptide elution
Procedure: as §1

HLA-C*04:01 [8] = target: T5, HLA-C*04:01; assay: MS validation of HLA class I-presented peptide; sample CAMA1
Procedure: as §1

HLA-A*02:01 [9] = target: T2, HLA-A*02:01; assay: MS validation of HLA class I-presented peptide; multiple cell lines and tumor samples
Procedure: as §1

HLA-A*02:01 [10] = target: T2, HLA-A*02:01; assay: MS validation of HLA class I-presented peptide; samples CD165, HCC1500, CAMA1
Procedure: as §1

HLA-C*04:01 [11] = target: T5, HLA-C*04:01; assay: MS validation of HLA class I-presented peptide; sample human prostate
Procedure: as §2

HLA-A*01:01 [12] = target: T3, HLA-A*01:01; assay: as above
Procedure: as §2

HLA-A*24:02 [13] = target: T7, HLA-A*24:02 (human); assay: as above
T7 construct: MHC class I molecule expressed by the cells or tissue sample (endogenous or BAP-tagged), immunopurified before peptide elution
Procedure: as §2

HLA-C*07:02 [14] = target: T6, HLA-C*07:02; assay: as above
Procedure: as §2

HLA-C*07:01 [15] = target: T8, HLA-C*07:01 (human); assay: MS validation of HLA class I-presented peptide; samples MDAPCa2b, human prostate
T8 construct: MHC class I molecule expressed by the cells or tissue sample (endogenous or BAP-tagged), immunopurified before peptide elution
Procedure: as §1

HLA-C*07:02 [16] = target: T6, HLA-C*07:02; assay: MS validation of HLA class I-presented peptide (second allele under Allele (MS)); samples MDAPCa2b, human prostate
Procedure: as §1

HLA-A*02:01 [17] = target: T2, HLA-A*02:01; assay: MS validation of HLA class I-presented peptide; sample human prostate
Procedure: as §2

HLA-A*02:01 [18] = target: T2, HLA-A*02:01; assay: MS validation of HLA class I-presented peptide; samples lung tumor, GBM, OvCa13, breast tumor, A375, MSV000082648
Procedure: as §1

HLA-B*07:02 [19] = target: T9, HLA-B*07:02 (human); assay: MS validation of HLA class I-presented peptide; sample human prostate
T9 construct: MHC class I molecule expressed by the cells or tissue sample (endogenous or BAP-tagged), immunopurified before peptide elution
Procedure: as §2

HLA-A*24:02 [20] = target: T7, HLA-A*24:02; assay: MS validation of HLA class I-presented peptide (validation cell empty in Table 1C); sample human prostate
HLA-C*07:01 [21] = target: T8, HLA-C*07:01; assay: MS validation of HLA class I-presented peptide; samples MDAPCa2b, human prostate, breast cancer
Procedure: as §1

HLA-B*07:02 [22] = target: T9, HLA-B*07:02; assay: MS validation of HLA class I-presented peptide (second allele under Allele (MS)); samples MDAPCa2b, human prostate, breast cancer
Procedure: as §1

Molecule: EVDPASNTY
binding result (HLA-A*01:01 [2]): binds

Molecule: KVLEHVVRV
binding result (HLA-A*02:01 [5]): binds

Molecule: NRPLLANDL
binding result (HLA-C*06:02 [6]): binds | binding result (HLA-C*07:02 [7]): binds

Molecule: SIPTKALEL
binding result (HLA-C*04:01 [8]): binds

Molecule: LLSHGAVIEV
binding result (HLA-A*02:01 [10]): binds

Molecule: LFHPEDTGQVF
binding result (HLA-A*24:02 [13]): binds

Molecule: VFQVSHSF
binding result (HLA-C*07:02 [14]): binds

Molecule: IRNKSVILL
binding result (HLA-C*06:02 [6]): binds | binding result (HLA-C*07:02 [7]): binds

Molecule: KVDELAHFL
binding result (HLA-A*02:01 [5]): binds

Molecule: MPALPMVL
binding result (HLA-B*07:02 [19]): binds

Molecule: GYLQGLVSF
binding result (HLA-A*24:02 [20]): binds

Molecule: HPEYNRPLL
binding result (HLA-C*07:01 [21]): binds | binding result (HLA-B*07:02 [22]): binds

Further lines, results first:

dot product similarity score of peptide fragment ions (class I HLA molecules): 0.992
Molecule: HPEYNRPLL (listed as Homo sapiens)

binding result (HLA-A*02:01 [1]): binds
Molecule: SLSKILDTV

binding result (HLA-C*06:02 [3]): binds
Molecule: AYSEKVTEF

binding result (HLA-C*04:01 [4]): binds
Molecule: SVPNKALEL

binding result (HLA-A*02:01 [9]): binds
Molecule: SLLQHLIGL

binding result (HLA-C*04:01 [11]): binds
Molecule: TWIAPPLQV

binding result (HLA-A*01:01 [12]): binds
Molecule: YSEKVTEFML

binding result (HLA-A*02:01 [1]): binds
Molecule: SLDQKLFQL

binding result (HLA-C*07:01 [15]): binds | binding result (HLA-C*07:02 [16]): binds
Molecule: QRVPVSHSF

binding result (HLA-A*02:01 [17]): binds
Molecule: LLANGRMPTV

binding result (HLA-A*02:01 [18]): binds
Molecule: GVYDGREHTV

binding result (HLA-C*07:02 [14]): binds
Molecule: LRPGDDSTL (4002 is used here)
